Measured values reported in paper PMC3767657.

Assays:
[1] = target: HIV-1 integrase (IN) T174I, in virus particles (HIV-1 (NL4.3-based vector)); test: cross-linking; purified virus (50 ng p24 equivalents) in PBS/0.25% Triton X-100 treated with BS3 for 20 min at room temperature, quenched with Tris-HCl pH 7.5, reducing SDS-PAGE, anti-IN Western blot; virus produced in the presence of DMSO or 1 uM GS-B, or cell-free virus treated with GS-B
[2] = target: HIV-1 integrase (IN), wild type, in virus particles (HIV-1 (NL4.3-based vector)); test: as above

HIV-1 integrase (IN) T174I, in virus particles (enzyme)
stoichiometry N [1]: 2

HIV-1 integrase (IN), wild type, in virus particles (enzyme)
stoichiometry N [2]: 2
